According to patent US20140087995A1 (published 2014):
Numbered stars: 1 amine (or outer) side, 2 acyl side, 3 side chain; on linkers, the order of the positions; unused ones are H or OH. Bridge positions count the residues as written; N and C are the ends. Side chains are listed from the residue outwards. Ends that are not written are not given here. * marks the point of attachment. C20 diacid = O=C(O)CCCCCCCCCCCCCCCCCCC(=O)*; γGlu = O=C(O)[C@H](CCC(=O)[*:2])N[*:1]

T1: human amylin receptor (amylin 3(a) receptor: human calcitonin receptor plus RAMP-3) (human, UniProt P30988 25-474; O60896 24-148, limits assumed)
T1 sequence (looked up) 1: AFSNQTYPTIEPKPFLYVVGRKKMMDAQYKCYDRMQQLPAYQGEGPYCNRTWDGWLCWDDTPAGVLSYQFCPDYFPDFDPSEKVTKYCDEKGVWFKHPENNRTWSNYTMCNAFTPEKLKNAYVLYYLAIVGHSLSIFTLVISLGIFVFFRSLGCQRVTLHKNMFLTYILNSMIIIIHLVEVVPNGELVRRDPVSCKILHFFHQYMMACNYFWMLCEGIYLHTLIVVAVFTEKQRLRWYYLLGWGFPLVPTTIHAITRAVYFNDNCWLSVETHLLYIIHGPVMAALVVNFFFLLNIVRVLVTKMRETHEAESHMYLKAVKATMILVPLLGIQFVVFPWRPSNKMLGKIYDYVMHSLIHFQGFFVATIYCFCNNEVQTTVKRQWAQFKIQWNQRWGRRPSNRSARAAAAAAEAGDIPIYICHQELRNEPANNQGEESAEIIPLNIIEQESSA
T1 sequence (looked up) 2: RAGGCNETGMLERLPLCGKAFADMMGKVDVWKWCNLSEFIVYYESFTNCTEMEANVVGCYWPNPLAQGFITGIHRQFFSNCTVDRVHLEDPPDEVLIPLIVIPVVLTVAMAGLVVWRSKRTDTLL

T2: human calcitonin receptor (human, UniProt P30988 25-474)
T2 sequence (looked up): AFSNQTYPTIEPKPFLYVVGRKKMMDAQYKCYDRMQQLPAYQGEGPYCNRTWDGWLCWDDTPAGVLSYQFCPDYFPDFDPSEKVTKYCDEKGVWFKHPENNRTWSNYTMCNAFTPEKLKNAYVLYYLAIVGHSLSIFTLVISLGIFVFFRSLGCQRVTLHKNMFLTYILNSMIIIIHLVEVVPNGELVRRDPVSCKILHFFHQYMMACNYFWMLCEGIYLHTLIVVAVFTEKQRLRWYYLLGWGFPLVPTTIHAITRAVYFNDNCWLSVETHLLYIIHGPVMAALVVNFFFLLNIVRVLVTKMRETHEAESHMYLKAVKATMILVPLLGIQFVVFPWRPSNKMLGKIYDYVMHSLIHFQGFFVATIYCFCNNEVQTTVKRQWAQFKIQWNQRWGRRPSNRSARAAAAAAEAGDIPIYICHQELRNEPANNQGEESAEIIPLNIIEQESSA


Key:
[1] = target: T1, human amylin receptor (amylin 3(a) …); assay: cell-based or functional assay
[2] = target: T2, human calcitonin receptor; assay: cell-based or functional assay

Row | Binder | Ratio hCT/hAmylin funct. [1] [ratio] | hAmylin-R funct. EC50 [1] [nM] | hCTR funct. EC50 [2] [nM]
1 | K([γGlu-C20 diacid])CNTATCATQRLAEFLRHSSPNFGAIPSSTNVGSRTY-NH2 (disulfide 2-7; N-terminus assumed; SMILES CC[C@H](C)[C@H](NC(=O)[C@H](C)NC(=O)CNC(=O)[C@H](Cc1ccccc1)NC(=O)[C@H](CC(N)=O)NC(=O)[C@@H]1CCCN1C(=O)[C@H](CO)NC(=O)[C@H](CO)NC(=O)[C@H](Cc1c[nH]cn1)NC(=O)[C@H](CCCNC(=N)N)NC(=O)[C@H](CC(C)C)NC(=O)[C@H](Cc1ccccc1)NC(=O)[C@H](CCC(=O)O)NC(=O)[C@H](C)NC(=O)[C@H](CC(C)C)NC(=O)[C@H](CCCNC(=N)N)NC(=O)[C@H](CCC(N)=O)NC(=O)[C@@H](NC(=O)[C@H](C)NC(=O)[C@@H]1CSSC[C@H](NC(=O)[C@@H](N)CCCCNC(=O)CC[C@H](NC(=O)CCCCCCCCCCCCCCCCCCC(=O)O)C(=O)O)C(=O)N[C@@H](CC(N)=O)C(=O)N[C@@H]([C@@H](C)O)C(=O)N[C@@H](C)C(=O)N[C@@H]([C@@H](C)O)C(=O)N1)[C@@H](C)O)C(=O)N1CCC[C@H]1C(=O)N[C@@H](CO)C(=O)N[C@@H](CO)C(=O)N[C@H](C(=O)N[C@@H](CC(N)=O)C(=O)N[C@H](C(=O)NCC(=O)N[C@@H](CO)C(=O)N[C@@H](CCCNC(=N)N)C(=O)N[C@H](C(=O)N[C@@H](Cc1ccc(O)cc1)C(N)=O)[C@@H](C)O)C(C)C)[C@@H](C)O, Synthetic acylated analogue of human amylin; also called compound 51) | 14 | 0.372 | 5.22
2 | {C20 diacid-γGlu}-KCNTATCATQRLAEFLRHSSPNFGAIPSSTNVGKNTY-NH2 (disulfide 2-7; SMILES CC[C@H](C)[C@H](NC(=O)[C@H](C)NC(=O)CNC(=O)[C@H](Cc1ccccc1)NC(=O)[C@H](CC(N)=O)NC(=O)[C@@H]1CCCN1C(=O)[C@H](CO)NC(=O)[C@H](CO)NC(=O)[C@H](Cc1c[nH]cn1)NC(=O)[C@H](CCCNC(=N)N)NC(=O)[C@H](CC(C)C)NC(=O)[C@H](Cc1ccccc1)NC(=O)[C@H](CCC(=O)O)NC(=O)[C@H](C)NC(=O)[C@H](CC(C)C)NC(=O)[C@H](CCCNC(=N)N)NC(=O)[C@H](CCC(N)=O)NC(=O)[C@@H](NC(=O)[C@H](C)NC(=O)[C@@H]1CSSC[C@H](NC(=O)[C@H](CCCCN)NC(=O)CC[C@H](NC(=O)CCCCCCCCCCCCCCCCCCC(=O)O)C(=O)O)C(=O)N[C@@H](CC(N)=O)C(=O)N[C@@H]([C@@H](C)O)C(=O)N[C@@H](C)C(=O)N[C@@H]([C@@H](C)O)C(=O)N1)[C@@H](C)O)C(=O)N1CCC[C@H]1C(=O)N[C@@H](CO)C(=O)N[C@@H](CO)C(=O)N[C@H](C(=O)N[C@@H](CC(N)=O)C(=O)N[C@H](C(=O)NCC(=O)N[C@@H](CCCCN)C(=O)N[C@@H](CC(N)=O)C(=O)N[C@H](C(=O)N[C@@H](Cc1ccc(O)cc1)C(N)=O)[C@@H](C)O)C(C)C)[C@@H](C)O, Synthetic acylated analogue of human amylin; also called compound 36) | 6.8 | 0.189 | 1.28

The remaining lines, values ahead:

Row | Ratio hCT/hAmylin funct. [1] [ratio] | hAmylin-R funct. EC50 [1] [nM] | hCTR funct. EC50 [2] [nM] | Binder
3 | 16.4 | 0.182 | 3 | K([γGlu-γGlu-C20 diacid])CNTATCATQRLADFLRHSSPNFGAIPSSTNVGSDTY-NH2 (disulfide 2-7; N-terminus assumed; SMILES CC[C@H](C)[C@H](NC(=O)[C@H](C)NC(=O)CNC(=O)[C@H](Cc1ccccc1)NC(=O)[C@H](CC(N)=O)NC(=O)[C@@H]1CCCN1C(=O)[C@H](CO)NC(=O)[C@H](CO)NC(=O)[C@H](Cc1c[nH]cn1)NC(=O)[C@H](CCCNC(=N)N)NC(=O)[C@H](CC(C)C)NC(=O)[C@H](Cc1ccccc1)NC(=O)[C@H](CC(=O)O)NC(=O)[C@H](C)NC(=O)[C@H](CC(C)C)NC(=O)[C@H](CCCNC(=N)N)NC(=O)[C@H](CCC(N)=O)NC(=O)[C@@H](NC(=O)[C@H](C)NC(=O)[C@@H]1CSSC[C@H](NC(=O)[C@@H](N)CCCCNC(=O)CC[C@H](NC(=O)CC[C@H](NC(=O)CCCCCCCCCCCCCCCCCCC(=O)O)C(=O)O)C(=O)O)C(=O)N[C@@H](CC(N)=O)C(=O)N[C@@H]([C@@H](C)O)C(=O)N[C@@H](C)C(=O)N[C@@H]([C@@H](C)O)C(=O)N1)[C@@H](C)O)C(=O)N1CCC[C@H]1C(=O)N[C@@H](CO)C(=O)N[C@@H](CO)C(=O)N[C@H](C(=O)N[C@@H](CC(N)=O)C(=O)N[C@H](C(=O)NCC(=O)N[C@@H](CO)C(=O)N[C@@H](CC(=O)O)C(=O)N[C@H](C(=O)N[C@@H](Cc1ccc(O)cc1)C(N)=O)[C@@H](C)O)C(C)C)[C@@H](C)O, Synthetic acylated analogue of human amylin; also called compound 2)
4 | 12 | 0.224 | 2.7 | K([γGlu-γGlu-C20 diacid])CNTATCATQRLADFLRHSSPNFGAPLSSTNVGSDTY-NH2 (disulfide 2-7; N-terminus assumed; SMILES CC(C)C[C@H](NC(=O)[C@H](CCCNC(=N)N)NC(=O)[C@H](CCC(N)=O)NC(=O)[C@@H](NC(=O)[C@H](C)NC(=O)[C@@H]1CSSC[C@H](NC(=O)[C@@H](N)CCCCNC(=O)CC[C@H](NC(=O)CC[C@H](NC(=O)CCCCCCCCCCCCCCCCCCC(=O)O)C(=O)O)C(=O)O)C(=O)N[C@@H](CC(N)=O)C(=O)N[C@@H]([C@@H](C)O)C(=O)N[C@@H](C)C(=O)N[C@@H]([C@@H](C)O)C(=O)N1)[C@@H](C)O)C(=O)N[C@@H](C)C(=O)N[C@@H](CC(=O)O)C(=O)N[C@@H](Cc1ccccc1)C(=O)N[C@@H](CC(C)C)C(=O)N[C@@H](CCCNC(=N)N)C(=O)N[C@@H](Cc1c[nH]cn1)C(=O)N[C@@H](CO)C(=O)N[C@@H](CO)C(=O)N1CCC[C@H]1C(=O)N[C@@H](CC(N)=O)C(=O)N[C@@H](Cc1ccccc1)C(=O)NCC(=O)N[C@@H](C)C(=O)N1CCC[C@H]1C(=O)N[C@@H](CC(C)C)C(=O)N[C@@H](CO)C(=O)N[C@@H](CO)C(=O)N[C@H](C(=O)N[C@@H](CC(N)=O)C(=O)N[C@H](C(=O)NCC(=O)N[C@@H](CO)C(=O)N[C@@H](CC(=O)O)C(=O)N[C@H](C(=O)N[C@@H](Cc1ccc(O)cc1)C(N)=O)[C@@H](C)O)C(C)C)[C@@H](C)O, Synthetic acylated analogue of human amylin; also called compound 1)
5 | 6.7 | 0.205 | 1.38 | K([γGlu-γGlu-C20 diacid])CNTATCATQRLADFLRHSSNPFGAPLSSTNVGSDTY-NH2 (disulfide 2-7; N-terminus assumed; SMILES CC(C)C[C@H](NC(=O)[C@H](CCCNC(=N)N)NC(=O)[C@H](CCC(N)=O)NC(=O)[C@@H](NC(=O)[C@H](C)NC(=O)[C@@H]1CSSC[C@H](NC(=O)[C@@H](N)CCCCNC(=O)CC[C@H](NC(=O)CC[C@H](NC(=O)CCCCCCCCCCCCCCCCCCC(=O)O)C(=O)O)C(=O)O)C(=O)N[C@@H](CC(N)=O)C(=O)N[C@@H]([C@@H](C)O)C(=O)N[C@@H](C)C(=O)N[C@@H]([C@@H](C)O)C(=O)N1)[C@@H](C)O)C(=O)N[C@@H](C)C(=O)N[C@@H](CC(=O)O)C(=O)N[C@@H](Cc1ccccc1)C(=O)N[C@@H](CC(C)C)C(=O)N[C@@H](CCCNC(=N)N)C(=O)N[C@@H](Cc1c[nH]cn1)C(=O)N[C@@H](CO)C(=O)N[C@@H](CO)C(=O)N[C@@H](CC(N)=O)C(=O)N1CCC[C@H]1C(=O)N[C@@H](Cc1ccccc1)C(=O)NCC(=O)N[C@@H](C)C(=O)N1CCC[C@H]1C(=O)N[C@@H](CC(C)C)C(=O)N[C@@H](CO)C(=O)N[C@@H](CO)C(=O)N[C@H](C(=O)N[C@@H](CC(N)=O)C(=O)N[C@H](C(=O)NCC(=O)N[C@@H](CO)C(=O)N[C@@H](CC(=O)O)C(=O)N[C@H](C(=O)N[C@@H](Cc1ccc(O)cc1)C(N)=O)[C@@H](C)O)C(C)C)[C@@H](C)O, Synthetic acylated analogue of human amylin; also called compound 3)
